This passage reports % of CD14+ monocytes with adhered backpacks results from patent US20240382628A1.

This assay concerns the target CD11b on cells in whole blood (species not stated) (Homo sapiens (Human)) (UniProt P11215). Description: adhesion of antibody-bearing backpacks to cells in whole blood.

“CD11b antibody (M1/70 clone, Biolegend Purified anti-mouse/human CD11b Antibody Cat #101201/101202), on polymeric particles (backpacks)” came in with a % of CD14+ monocytes with adhered backpacks of 95%.
